This is an account of results in article PMC10529462 (Brain research, 2023).

By Kd is commonly meant the equilibrium constant for the complex coming apart. High values mean a looser complex, low ones a tighter complex.

Common to all, as to experiment: fluorescence polarisation
In general terms: Polarisation of emitted light reports the rotation of a fluorescent probe.

Assay [1] concerns the target T1, Mint1^Y633A C-terminal construct, amino acids 453-839 (rat, UniProt O35430 453-839, Y633A).
T1 sequence (looked up): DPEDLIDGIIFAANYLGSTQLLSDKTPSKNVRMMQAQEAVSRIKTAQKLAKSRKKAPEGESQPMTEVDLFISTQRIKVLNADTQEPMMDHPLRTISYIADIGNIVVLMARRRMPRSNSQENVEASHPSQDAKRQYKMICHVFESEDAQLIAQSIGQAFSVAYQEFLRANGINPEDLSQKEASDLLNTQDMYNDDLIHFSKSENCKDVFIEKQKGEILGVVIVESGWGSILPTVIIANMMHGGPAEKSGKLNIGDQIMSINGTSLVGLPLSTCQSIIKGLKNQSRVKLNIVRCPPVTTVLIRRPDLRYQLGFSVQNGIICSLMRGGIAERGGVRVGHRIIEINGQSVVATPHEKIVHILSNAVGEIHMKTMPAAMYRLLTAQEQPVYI

The target of assay [2] is T2, Mint1^Y549A/F610A C-terminal construct, amino acids 453-839 (rat, UniProt O35430 453-839, Y549A | F610A).
T2 sequence (looked up): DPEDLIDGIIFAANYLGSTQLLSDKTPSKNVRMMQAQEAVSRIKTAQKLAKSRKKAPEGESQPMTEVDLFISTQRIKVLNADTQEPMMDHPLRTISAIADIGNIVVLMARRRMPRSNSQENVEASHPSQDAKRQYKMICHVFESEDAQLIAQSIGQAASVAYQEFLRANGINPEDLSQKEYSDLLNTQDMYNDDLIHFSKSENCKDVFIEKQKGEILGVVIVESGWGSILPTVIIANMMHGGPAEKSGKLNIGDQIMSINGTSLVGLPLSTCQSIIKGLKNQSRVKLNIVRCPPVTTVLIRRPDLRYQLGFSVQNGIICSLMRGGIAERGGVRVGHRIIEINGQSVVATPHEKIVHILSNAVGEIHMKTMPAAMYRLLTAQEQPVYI

Assay [3] has as its target T3, Mint1^WT C-terminal construct, amino acids 453-839 (rat, UniProt O35430 453-839).
T3 sequence (looked up): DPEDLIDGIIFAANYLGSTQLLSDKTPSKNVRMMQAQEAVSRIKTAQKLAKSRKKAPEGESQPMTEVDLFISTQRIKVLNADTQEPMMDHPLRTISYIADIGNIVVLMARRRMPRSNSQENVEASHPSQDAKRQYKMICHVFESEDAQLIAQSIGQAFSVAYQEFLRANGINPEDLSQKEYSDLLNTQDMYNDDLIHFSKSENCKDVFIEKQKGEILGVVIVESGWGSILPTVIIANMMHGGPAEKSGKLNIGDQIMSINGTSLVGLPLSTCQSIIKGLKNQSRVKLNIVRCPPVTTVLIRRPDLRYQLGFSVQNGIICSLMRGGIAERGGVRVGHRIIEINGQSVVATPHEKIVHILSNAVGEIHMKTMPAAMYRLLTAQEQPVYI

In assay [4] the target is TAMRA-PS1-10mer.

No end group written: not given here.

B1: TAMRA-APP17-mer (peptide)
peptide: {TAMRA}-NNGQNGYENPTYKFFEQMQN
As to B1, the equilibrium dissociation constant (Kd) in assay [1] was 14.5 ± 0.74 µM; in assay [2], 382 ± 12.5 µM; in assay [3], 282 ± 8.3 µM.

B2: TAMRA-VGCC2.2-20mer (peptide)
peptide: {TAMRA}-NNGLSSGGRARHSYHHPDQDHWC
Take B2: the values for the Kd in assay [2] and in assay [3] were 1460 ± 25.2 µM and 619 ± 57.9 µM, respectively.

B3: Mint1^Y633A C-terminal construct, amino acids 453-839 (domain or fragment)
chain: DPEDLIDGIIFAANYLGSTQLLSDKTPSKNVRMMQAQEAVSRIKTAQKLAKSRKKAPEGESQPMTEVDLFISTQRIKVLNADTQEPMMDHPLRTISYIADIGNIVVLMARRRMPRSNSQENVEASHPSQDAKRQYKMICHVFESEDAQLIAQSIGQAFSVAYQEFLRANGINPEDLSQKEASDLLNTQDMYNDDLIHFSKSENCKDVFIEKQKGEILGVVIVESGWGSILPTVIIANMMHGGPAEKSGKLNIGDQIMSINGTSLVGLPLSTCQSIIKGLKNQSRVKLNIVRCPPVTTVLIRRPDLRYQLGFSVQNGIICSLMRGGIAERGGVRVGHRIIEINGQSVVATPHEKIVHILSNAVGEIHMKTMPAAMYRLLTAQEQPVYI
The molecule B3 returned a Kd in assay [4] of 139 µM.

B4: Mint1^Y549A/F610A C-terminal construct, amino acids 453-839 (domain or fragment)
chain: DPEDLIDGIIFAANYLGSTQLLSDKTPSKNVRMMQAQEAVSRIKTAQKLAKSRKKAPEGESQPMTEVDLFISTQRIKVLNADTQEPMMDHPLRTISAIADIGNIVVLMARRRMPRSNSQENVEASHPSQDAKRQYKMICHVFESEDAQLIAQSIGQAASVAYQEFLRANGINPEDLSQKEYSDLLNTQDMYNDDLIHFSKSENCKDVFIEKQKGEILGVVIVESGWGSILPTVIIANMMHGGPAEKSGKLNIGDQIMSINGTSLVGLPLSTCQSIIKGLKNQSRVKLNIVRCPPVTTVLIRRPDLRYQLGFSVQNGIICSLMRGGIAERGGVRVGHRIIEINGQSVVATPHEKIVHILSNAVGEIHMKTMPAAMYRLLTAQEQPVYI
B4: the dissociation constant (Kd) in assay [4] turned out to be 301 µM.

B5: Mint1^WT C-terminal construct, amino acids 453-839 (domain or fragment)
chain: DPEDLIDGIIFAANYLGSTQLLSDKTPSKNVRMMQAQEAVSRIKTAQKLAKSRKKAPEGESQPMTEVDLFISTQRIKVLNADTQEPMMDHPLRTISYIADIGNIVVLMARRRMPRSNSQENVEASHPSQDAKRQYKMICHVFESEDAQLIAQSIGQAFSVAYQEFLRANGINPEDLSQKEYSDLLNTQDMYNDDLIHFSKSENCKDVFIEKQKGEILGVVIVESGWGSILPTVIIANMMHGGPAEKSGKLNIGDQIMSINGTSLVGLPLSTCQSIIKGLKNQSRVKLNIVRCPPVTTVLIRRPDLRYQLGFSVQNGIICSLMRGGIAERGGVRVGHRIIEINGQSVVATPHEKIVHILSNAVGEIHMKTMPAAMYRLLTAQEQPVYI
B5 came in with a dissociation constant Kd in assay [4] of 358 µM.
